# Reference: patent US20180111984A1 (Teva, published 2018)
# Ends that are not written are not given here.
# B1: human α-CGRP 1-36-COOH (peptide)
# peptide: ACDTATCVTHRLAGLLSRSGGVVKNNFVPTNVGSKA-OH
# modifications: ends and bridges not checked
# notes: not C-terminally amidated; also called 1-36 (not amidated at the C-terminus)
# B2: human β-CGRP (1-37) (peptide)
# peptide: ACNTATCVTHRLAGLLSRSGGMVKSNFVPTNVGSKAF-NH2
# modifications: cysteine pairing not given here
# notes: also called human β (1-37); 1-37 of β-CGRP (WT)
# Target: T1, antibody G1 Fab fragment
# T1 construct: Fab expressed in E. coli; purified on Ni-NTA, tag not described
# Test: Biacore competition: 10 µM peptide with 50 nM G1 Fab over human α-CGRP chip
# Source text: Y axis represents percentage of binding blocked by the presence of the competing peptide compared with the binding in the absence of the competing peptide.
# All these peptides are amidated at the C-terminus.
# T1 sequence (VH, as listed by the source, chain 1 of 2): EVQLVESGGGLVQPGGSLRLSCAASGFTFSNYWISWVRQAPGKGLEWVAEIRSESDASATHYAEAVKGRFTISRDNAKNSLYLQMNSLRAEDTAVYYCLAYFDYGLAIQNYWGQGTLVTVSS
# T1 sequence (VL, as listed by the source, chain 2 of 2): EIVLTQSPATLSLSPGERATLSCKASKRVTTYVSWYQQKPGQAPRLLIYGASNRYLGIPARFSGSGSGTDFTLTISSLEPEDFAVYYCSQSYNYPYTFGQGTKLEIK
row,percentage of binding blocked,Binder
1,~40%,B1
2,100%,NFVPTNVGSKAF-NH2 [human α-CGRP 26-37]
3,100%,"ACDTATCVTHRLAGLLSRSGGVVKNNFVPTNVGSKAF-NH2 (cysteine pairing not given here, also called full length human α-CGRP) [human α-CGRP 1-37 (WT)]"
4,100%,B2
5,100%,"SCNTATCVTHRLAGLLSRSGGVVKDNFVPTNVGSKAF-NH2 (cysteine pairing not given here, also called rat β (1-37)) [rat β-CGRP (1-37)]"
6,100%,VTHRLAGLLSRSGGVVKNNFVPTNVGSKAF-NH2 [human α-CGRP 8-37]
